From patent publication EP2718311B1 (TLA Targeted Immunotherapies AB, dated 2018)

How the values were obtained:
hCCR5 (human) [1] = molecular target: hCCR5 (human) (UniProt P51681); test: cell-based or functional assay
[2] = molecular target: T1, CCR1 on human peripheral blood cells (human) (UniProt P32246); test: blood of a healthy donor passed through a column of biotinylated RANTES coupled matrix; flow cytometry for CCR1, 3 and 5-expressing cells
T1 sequence (looked up): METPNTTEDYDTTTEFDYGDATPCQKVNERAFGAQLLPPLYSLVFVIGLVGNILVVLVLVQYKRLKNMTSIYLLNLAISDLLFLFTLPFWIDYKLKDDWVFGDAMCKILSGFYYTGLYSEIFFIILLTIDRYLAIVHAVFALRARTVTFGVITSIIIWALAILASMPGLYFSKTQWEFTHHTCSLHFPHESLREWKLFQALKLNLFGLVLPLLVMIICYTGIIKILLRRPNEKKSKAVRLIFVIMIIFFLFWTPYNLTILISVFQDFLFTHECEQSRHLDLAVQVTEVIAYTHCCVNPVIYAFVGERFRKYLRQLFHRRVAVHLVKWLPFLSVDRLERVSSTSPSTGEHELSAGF

hCCR3 (human) [3] = molecular target: hCCR3 (human) (UniProt P51677); test: as above
hCCR5 (human) [4] = molecular target: hCCR5 (human) (UniProt P51681); test: as above
hCCR9 (human) = hCCR9 (human) (UniProt P51686); test: cell-based or functional assay
[5] = molecular target: CCR2 on human peripheral blood cells (monocytes, T cells) (human) (UniProt P41597); test: flow cytometry, labelled MCP-1 on fixed blood leukocytes of healthy donors, 30 min at 4 °C
[6] = molecular target: CCR2 on human peripheral blood cells (monocytes, T cells) (human) (UniProt P41597); test: blood of three healthy donors passed through a column of bMCP-1 coupled matrix; flow cytometry before and after
hCXCR3 (human) = hCXCR3 (human) (UniProt P49682); test: cell-based or functional assay
hCCR6 (human) = hCCR6 (human) (UniProt P51684); test: cell-based or functional assay
hCCR3 (human) [7] = molecular target: hCCR3 (human) (UniProt P51677); test: cell-based or functional assay
hCCR2b = molecular target: T2, hCCR2b (human, UniProt P41597 1-374); test: cell-based or functional assay
T2 chain: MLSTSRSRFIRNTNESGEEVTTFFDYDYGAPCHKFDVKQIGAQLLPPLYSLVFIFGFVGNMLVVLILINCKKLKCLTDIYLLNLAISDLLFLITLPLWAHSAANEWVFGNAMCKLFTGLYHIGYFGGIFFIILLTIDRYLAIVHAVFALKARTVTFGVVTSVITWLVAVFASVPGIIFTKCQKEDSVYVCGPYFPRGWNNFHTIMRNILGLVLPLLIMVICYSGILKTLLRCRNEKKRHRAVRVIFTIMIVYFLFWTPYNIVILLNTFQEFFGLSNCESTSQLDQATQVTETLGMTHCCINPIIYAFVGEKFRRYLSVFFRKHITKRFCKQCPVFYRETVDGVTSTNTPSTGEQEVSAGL

Chain of hCXCR3 (human) (P49682 whole entry): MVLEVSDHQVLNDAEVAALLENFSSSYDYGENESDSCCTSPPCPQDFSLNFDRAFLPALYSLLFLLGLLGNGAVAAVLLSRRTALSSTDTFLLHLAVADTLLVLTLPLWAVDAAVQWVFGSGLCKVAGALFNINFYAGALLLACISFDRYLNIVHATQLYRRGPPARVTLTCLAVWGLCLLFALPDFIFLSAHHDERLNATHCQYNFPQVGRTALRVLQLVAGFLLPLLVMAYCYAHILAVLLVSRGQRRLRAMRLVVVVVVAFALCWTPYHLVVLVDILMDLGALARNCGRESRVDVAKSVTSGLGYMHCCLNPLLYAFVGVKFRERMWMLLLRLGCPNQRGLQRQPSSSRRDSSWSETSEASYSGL
Chain of hCCR9 (human) (P51686 whole entry): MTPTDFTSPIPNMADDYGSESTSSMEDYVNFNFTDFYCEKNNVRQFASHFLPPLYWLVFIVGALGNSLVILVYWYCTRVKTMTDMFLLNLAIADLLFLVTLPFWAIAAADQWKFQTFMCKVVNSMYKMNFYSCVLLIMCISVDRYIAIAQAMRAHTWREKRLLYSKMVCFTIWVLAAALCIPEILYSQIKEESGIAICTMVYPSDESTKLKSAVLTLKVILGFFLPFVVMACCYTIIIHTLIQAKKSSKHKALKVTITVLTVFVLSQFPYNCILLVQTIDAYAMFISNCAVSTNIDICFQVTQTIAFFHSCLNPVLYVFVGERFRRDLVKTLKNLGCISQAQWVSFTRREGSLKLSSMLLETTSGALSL
Chain of hCCR5 (human) (P51681 whole entry): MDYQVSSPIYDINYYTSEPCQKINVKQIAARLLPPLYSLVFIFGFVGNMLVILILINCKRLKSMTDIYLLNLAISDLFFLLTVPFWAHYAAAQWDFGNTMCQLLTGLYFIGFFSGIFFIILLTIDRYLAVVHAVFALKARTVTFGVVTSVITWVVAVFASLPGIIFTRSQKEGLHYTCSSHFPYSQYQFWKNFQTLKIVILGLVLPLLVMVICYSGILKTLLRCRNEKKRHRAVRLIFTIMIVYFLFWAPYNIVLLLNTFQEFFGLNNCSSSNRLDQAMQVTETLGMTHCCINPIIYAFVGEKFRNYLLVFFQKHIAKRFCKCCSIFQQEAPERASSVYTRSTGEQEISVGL
Chain of hCCR3 (human) (P51677 whole entry): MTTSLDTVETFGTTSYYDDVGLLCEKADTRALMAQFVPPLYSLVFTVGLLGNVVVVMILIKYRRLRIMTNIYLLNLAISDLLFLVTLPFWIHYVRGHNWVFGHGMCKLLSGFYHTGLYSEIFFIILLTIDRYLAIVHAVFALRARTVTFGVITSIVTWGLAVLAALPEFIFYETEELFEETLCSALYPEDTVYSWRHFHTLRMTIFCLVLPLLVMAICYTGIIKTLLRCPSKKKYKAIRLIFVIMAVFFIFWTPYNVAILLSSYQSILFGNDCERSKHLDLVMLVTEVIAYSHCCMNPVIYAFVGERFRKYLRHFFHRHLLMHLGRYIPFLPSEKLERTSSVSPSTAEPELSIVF
Chain of hCCR6 (human) (P51684 whole entry): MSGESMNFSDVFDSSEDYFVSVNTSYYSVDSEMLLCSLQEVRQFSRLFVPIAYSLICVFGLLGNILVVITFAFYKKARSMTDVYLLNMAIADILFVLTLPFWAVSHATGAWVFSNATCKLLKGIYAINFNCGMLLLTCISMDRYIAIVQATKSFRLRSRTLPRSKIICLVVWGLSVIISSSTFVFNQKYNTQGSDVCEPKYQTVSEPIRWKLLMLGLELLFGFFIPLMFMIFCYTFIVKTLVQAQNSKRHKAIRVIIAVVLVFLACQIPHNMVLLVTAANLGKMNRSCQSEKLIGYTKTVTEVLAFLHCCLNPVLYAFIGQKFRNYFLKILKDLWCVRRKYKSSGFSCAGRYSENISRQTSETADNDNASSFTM

Molecule: biotinRANTES (CCL5) (from UniProt P13501 24-91) (ligand)
- agonist activity in an Aequorin assay, EC50 (hCCR5 (human) [1]): 0.5 nM
- reduction of chemokine receptor-expressing cells by the column [2]: 20%
- reduction of chemokine receptor-expressing cells by the column (hCCR3 (human) [3]): 20%
- reduction of chemokine receptor-expressing cells by the column (hCCR5 (human) [4]): 20%

Molecule: biotinTECK(Met to Nleu substitution) (from UniProt O15444 25-97) (ligand)
- agonist activity in an Aequorin assay, EC50 (hCCR9 (human)): 63.6 nM

Molecule: biotinylated MCP-1 (from UniProt P13500 24-99) (ligand)
- percent of monocytes that bound the chemokine [5]: 90%
- remaining levels of monocytes after column passage [6]: 20 to 30%

Molecule: recombinant native IP-10 (from UniProt P02778 22-98) (ligand)
- agonist activity in an Aequorin assay, EC50 (hCXCR3 (human)): 4.4 nM

Molecule: recombinant native ITAC (from UniProt O14625 22-94) (ligand)
- agonist activity in an Aequorin assay, EC50 (hCXCR3 (human)): 0.7 nM

Molecule: recombinant native MIP-3α (from UniProt P78556 27-96) (ligand)
- agonist activity in an Aequorin assay, EC50 (hCCR6 (human)): 1 nM

Molecule: recombinant native TECK (from UniProt O15444 24-150) (ligand)
- agonist activity in an Aequorin assay, EC50 (hCCR9 (human)): 67.9 nM

Molecule: recombinant native eotaxin (from UniProt P51671 24-97) (ligand)
- activity in an Aequorin assay (agonist), EC50 (hCCR3 (human) [7]): 10.7 nM

B1: recombinant native MCP-2 (ligand, human, UniProt P80075 24-99, looked up)
chain: QPDSVSIPITCCFNVINRKIPIQRLESYTRITNIQCPKEAVIFKTKRGKEVCADPKERWVRDSMKHLDQIFQNLKP
- activity in an Aequorin assay (partial agonist), EC50 (hCCR2b): 23.5 nM
